Target: activated RecA (RecA*), E. coli RecA polymerised on ssDNA with ATPγS (E. coli) (UniProt P0A7G6)
Test: fluorescence polarisation

Chain of activated RecA (RecA*), E. coli RecA polymerised on ssDNA with ATPγS (E. coli) (P0A7G6 whole entry): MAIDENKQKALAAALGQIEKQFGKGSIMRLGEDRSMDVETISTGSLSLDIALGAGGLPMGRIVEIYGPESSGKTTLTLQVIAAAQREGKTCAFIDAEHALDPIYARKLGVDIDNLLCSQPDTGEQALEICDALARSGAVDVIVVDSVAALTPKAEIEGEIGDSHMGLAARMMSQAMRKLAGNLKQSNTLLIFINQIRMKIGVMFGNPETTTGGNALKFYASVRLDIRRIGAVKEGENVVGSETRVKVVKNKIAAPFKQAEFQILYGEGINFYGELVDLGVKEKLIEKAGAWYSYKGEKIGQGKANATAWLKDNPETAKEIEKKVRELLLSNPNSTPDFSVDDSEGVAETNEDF

Substance	fold decrease in apparent affinity for RecA* against LexA-S119A [fold]
LexA G80P, full-length cleavage loop variant (from UniProt P0A7C2 1-202) (natural protein)	> 10
LexA V82M, full-length cleavage loop variant (from UniProt P0A7C2 1-202) (natural protein)	> 10

Source: PMC7230020
